Molecular target: T1, extracellular domain (ECD) of the human RNF43 protein, biotinylated, Q68DV7
T1 chain: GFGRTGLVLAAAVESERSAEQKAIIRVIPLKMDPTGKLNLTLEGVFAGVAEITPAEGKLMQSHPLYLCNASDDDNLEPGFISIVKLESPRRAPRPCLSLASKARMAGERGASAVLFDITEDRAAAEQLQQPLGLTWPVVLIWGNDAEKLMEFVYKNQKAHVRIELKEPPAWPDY
Test: SPR
Conditions: chain shown with the change;; parent: 1.1 ± 0.07 nM

Question: With EQCTSTQDLCHDASHVCCWPLDCRWAVKYQWFWDCIG [GUR-1.6.12.2 Y13A] as the binder, how does the Kd read?
Answer: The Kd was 36 nM.

From publication PMC12464775, “Selective and Potent Peptide Binders of RNF43 for Wnt Signaling Inhibition” (ACS Central Science, 2025)
